Measurements: patent publication US20230363362A1, “GENETICALLY MODIFIED NON-HUMAN ANIMAL WITH HUMAN OR CHIMERIC GLP1R” (Biocytogen Pharmaceuticals (Beijing) Co., Ltd., priority 2020, published 2023)

Key:
mouse GLP1R [1] = molecular target: T1, mouse GLP1R (Mus musculus, UniProt O35659); experiment: High-fat diet induced obesity model (Example 3), wild-type C57BL/6 mice; format: in vivo; set-up: Ten 7-week-old male wild-type C57BL/6 mice (WT); endogenous in cells; host or cells: wild-type C57BL/6 mice (whole animal, in vivo)
T1 sequence (O35659 22-463): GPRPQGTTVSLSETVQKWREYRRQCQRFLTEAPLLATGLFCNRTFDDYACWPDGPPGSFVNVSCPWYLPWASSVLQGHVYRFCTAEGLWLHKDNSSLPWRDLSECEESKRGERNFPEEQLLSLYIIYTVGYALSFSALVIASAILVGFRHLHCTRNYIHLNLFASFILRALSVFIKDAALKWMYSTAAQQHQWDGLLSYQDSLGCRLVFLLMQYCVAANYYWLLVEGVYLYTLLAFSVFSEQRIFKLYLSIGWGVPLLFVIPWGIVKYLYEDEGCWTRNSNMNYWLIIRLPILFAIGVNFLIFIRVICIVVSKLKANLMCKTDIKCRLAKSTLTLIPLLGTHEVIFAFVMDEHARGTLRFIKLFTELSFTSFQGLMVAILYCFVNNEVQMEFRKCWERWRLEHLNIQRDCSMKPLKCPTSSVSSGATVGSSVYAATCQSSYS
Procedure: (§1) Twenty 7-week-old male wild-type C57BL/6 mice (WT) and twenty GLP1R humanized homozygous mice (I/H) were selected. All mice were given a high-fat diet for 12 weeks to induce obesity and high blood sugar.
(§2) On the 13th week, the mice were grouped and administered either Dulaglutide or PBS according to Table 5. The day of grouping was recorded as DO, the next day was recorded as D1, and so on for calculation. When a mouse lost more than 20% of its body weight, it was euthanized to end the experiment. The administration group was given 1 mg/kg Dulaglutide by subcutaneous injection (sc), and the control group was given the same dose of control PBS, once every two days, with a total of 5 administrations. The test protocol is as follows: the random blood glucose (RBG) concentration and body weight were measured before each administration; the mice were fasted after the second administration, and the glucose tolerance test ([…]) was carried out the next day (protocol: after the fasting blood glucose was tested, 2 g/kg D-glucose was injected intraperitoneally, and blood glucose was measured at 15 min, 30 min, 60 min and 120 min after injection; the glucose solution was prepared at the ratio of 20% mass fraction, the administration dose was 10 ul/g body weight, and the solvent was physiological saline). After the fourth administration, the mice were fasted, and the fasting blood glucose was measured on the second day; blood was collected from the canthus within 48 hours after the last administration, and the supernatant was obtained by centrifugation. The levels of serum glucagon and insulin were determined by ELISA.

mouse GLP1R [2] = molecular target: T1, mouse GLP1R; experiment: In vivo drug efficacy experiment (Example 2), wild-type C57BL/6 mice; set-up: Ten 7-week-old male wild-type C57BL/6 mice (WT); endogenous in cells; host or cells: wild-type C57BL/6 mice (whole animal, in vivo)
Procedure: (§3) Ten 7-week-old male wild-type C57BL/6 mice (WT) and ten GLP1R gene humanized homozygous mice (H/H) were selected, and randomly divided (according to body weight) into control group (G1, G3) and administration Group (G2, G4). The control group was injected subcutaneously (s.c.) phosphate buffered saline (PBS). The administration group was injected subcutaneously with 10 mg/kg GLP1R agonist Dulaglutide, administered once every two days, with a total of 5 administrations. Before each administration, the body weight and non-fasting blood glucose concentration of the mice were measured. After the second and fourth doses, the mice were fasted overnight, and the glucose tolerance test (IPGTT) was used to evaluate the tolerance of the mice to glucose by intraperitoneal injection of 2 g/kg glucose D-Glucose. Blood was collected to determine the blood glucose value at 15 min, 30 min, 60 min, 120 min after injection, and the area under the curve (AUC) was calculated.

human GLP1R [3] = molecular target: T2, human GLP1R (Homo sapiens, UniProt P43220); details: background statement, no test described; cited from earlier work
T2 construct: 61-1452; 1-463; expressed in transfected cells; host or cells: GLP1R gene humanized homozygous mice (C57BL/6 ES cells); The human CDS is inserted into mouse exon 1 at the endogenous Glp1r locus, under mouse regulatory elements

human GLP1R [4] = molecular target: T2, human GLP1R; experiment: High-fat diet induced obesity model (Example 3), GLP1R humanized homozygous mice; format: in vivo, mouse; details: G4 GLP1R humanized
Procedure: as §1, §2

mouse GLP1R [5] = molecular target: T1, mouse GLP1R; details: background statement, no test described; cited from earlier work
human GLP1R [6] = molecular target: T2, human GLP1R; experiment: In vivo drug efficacy experiment (Example 2), GLP1R gene humanized homozygous mice; set-up: species or system mouse
Procedure: as §3

T2 sequence (P43220 24-463): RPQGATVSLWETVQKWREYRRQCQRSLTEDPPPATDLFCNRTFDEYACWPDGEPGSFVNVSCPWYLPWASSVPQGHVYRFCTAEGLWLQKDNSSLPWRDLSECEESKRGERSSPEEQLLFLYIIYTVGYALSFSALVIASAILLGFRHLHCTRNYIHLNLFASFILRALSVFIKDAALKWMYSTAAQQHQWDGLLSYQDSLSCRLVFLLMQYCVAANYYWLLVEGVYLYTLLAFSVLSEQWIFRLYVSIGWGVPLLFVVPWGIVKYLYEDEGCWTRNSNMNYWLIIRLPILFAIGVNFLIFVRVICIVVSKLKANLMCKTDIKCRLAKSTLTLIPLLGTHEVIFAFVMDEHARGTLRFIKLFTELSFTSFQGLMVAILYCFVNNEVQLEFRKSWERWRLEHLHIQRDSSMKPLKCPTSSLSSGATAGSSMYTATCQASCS

Dulaglutide
body weight (mouse GLP1R [1]; G2 C57BL/6, high-fat diet 12 weeks, 1 mg/kg s.c. Q2d*5, vs PBS control, FIG. 23): decreased more significantly
blood glucose (non-fasting) (mouse GLP1R [1]; G2 C57BL/6, high-fat diet, 1 mg/kg s.c. Q2d*5, FIG. 25): significantly reduced
food intake in the 24 hours after the first administration (mouse GLP1R [1]; G2 C57BL/6, high-fat diet, 1 mg/kg s.c., vs control group, FIG. 24B): significantly lower
plasma levels of glucagon (mouse GLP1R [1]; G2 C57BL/6, high-fat diet, 24 hours after the drug administration, FIG. 28): decreased
level of glucagon-like peptide-1 (mouse GLP1R [1]; G2 C57BL/6, high-fat diet, 24 hours after the drug administration, FIG. 29): significantly increased
insulin level (mouse GLP1R [1]; G2 C57BL/6, high-fat diet, Day 10, 15 min time point, vs control group, FIG. 27): tendency to increase
glucose tolerance (glucose tolerance test) (mouse GLP1R [1]; G2 C57BL/6, high-fat diet, after second administration, fasted, 2 g/kg D-glucose i.p., FIG. 26): significantly improve
body weight during the experiment (mouse GLP1R [2]; G2, WT C57BL/6 mice, s.c. Q2d x 5, 10 mg/kg / 1 mg/kg (Table 5), FIG. 11): remained stable and did not change significantly
fasting blood glucose (mouse GLP1R [2]; G2 WT vs PBS control G1, fasted overnight, s.c. Q2d x 5, FIG. 13): reduced
non-fasting blood glucose (mouse GLP1R [2]; G2 WT vs PBS control G1, s.c. Q2d x 5, 10 mg/kg / 1 mg/kg (Table 5), FIG. 12): reduced
area under the curve (AUC) of IPGTT (mouse GLP1R [2]; WT mice, 2 g/kg D-Glucose i.p., blood glucose 15-120 min, P≤0.05, FIG. 15): significant downward trend
affinity for human GLP1R (human GLP1R [3]): has affinity
body weight (human GLP1R [4]; high-fat diet 12 weeks, 1 mg/kg s.c. Q2d*5, vs PBS control, FIG. 23): decreased more significantly
blood glucose (non-fasting) (human GLP1R [4]; high-fat diet, 1 mg/kg s.c. Q2d*5, FIG. 25): significantly reduced
food intake in the 24 hours after the first administration (human GLP1R [4]; high-fat diet, 1 mg/kg s.c., vs control group, FIG. 24B): significantly lower
plasma levels of glucagon (human GLP1R [4]; high-fat diet, 24 hours after the drug administration, FIG. 28): decreased, and the decrease was more obvious
level of glucagon-like peptide-1 (human GLP1R [4]; high-fat diet, 24 hours after the drug administration, FIG. 29): significantly increased
insulin level (human GLP1R [4]; high-fat diet, Day 10, 15 min time point, vs control group, FIG. 27): tendency to increase
glucose tolerance (glucose tolerance test) (human GLP1R [4]; high-fat diet, after second administration, fasted, 2 g/kg D-glucose i.p., FIG. 26): significantly improve
affinity for mouse GLP1R (mouse GLP1R [5]): has affinity
body weight during the experiment (human GLP1R [6]; G4, H/H mice, s.c. Q2d x 5, 10 mg/kg / 1 mg/kg (Table 5), FIG. 11): remained stable and did not change significantly
fasting blood glucose (human GLP1R [6]; G4 H/H vs PBS control G3, fasted overnight, s.c. Q2d x 5, FIG. 13): reduced
non-fasting blood glucose (human GLP1R [6]; G4 H/H vs PBS control G3, s.c. Q2d x 5, 10 mg/kg / 1 mg/kg (Table 5), FIG. 12): reduced
area under the curve (AUC) of IPGTT (human GLP1R [6]; H/H mice, 2 g/kg D-Glucose i.p., blood glucose 15-120 min, P≤0.05, FIG. 15): significant downward trend
